# From patent publication US9144596
# Columns and labels:
# [1] = test system: mutant (I-A,Y-A) APC peptide (1250-KVSSINQETAQTACVEDTPI-1269)
# [2] = test system: wild-type APC peptide (1250-KVSSINQETIQTYCVEDTPI-1269)
substance,measurement,setting,value
"His-tagged pol-βwt protein (human pol-β, carboxyl-terminal hexahistidine tag, pET23d)",dRP-lyase activity of pol-βwt (3'-end labeled U-DNA substrate),[1],"APC(I-A,Y-A) did not show any effect on the dRP-lyase activity of pol-βwt"
same,dRP-lyase activity of pol-βwt (3'-end labeled U-DNA substrate),[2],"a very efficient dRP-lyase activity of pol-βwt ..., which was blocked by APCwt peptide in a dose-dependent manner"
